Measurements reported in patent US12607633B2 (priority 2016, dated 2026).
Entries after “also recorded” stand apart in the source; their conditions may differ.

How the values were obtained:
[1] = target: VEEV nsP2 protease cleavage of TRIM14 (Venezuelan equine encephalitis virus, UniProt P27282); assay type: cell-based
[2] = system: VEEV; assay type: cell-based, Venezuelan equine encephalitis virus (VEEV)
[3] = target: ZIKV ns2B-ns3 protease (Zika virus, UniProt A0A024B7W1, C1582S/C1645S/R1467A/R1531G); assay type: biochemical
[4] = target: EEEV nsP2 cysteine protease (Eastern equine encephalitis virus, UniProt Q4QXJ8); assay type: biochemical
[5] = target: T1, VEEV nsP2 cysteine protease (Venezuelan equine encephalitis virus, UniProt P27282)
[6] = target: CHIKV nsP2 cysteine protease (Chikungunya virus, UniProt Q8JUX6, A1139V/C1177Y/S1178N)
[7] = target: WEEV nsP2 cysteine protease (Western equine encephalitis virus, UniProt P13896)
[8] = target: T1, VEEV nsP2 cysteine protease; details: pH 7

VEEV nsP2 protease cleavage of TRIM14, sequence (P27282 536-1329 limits assumed): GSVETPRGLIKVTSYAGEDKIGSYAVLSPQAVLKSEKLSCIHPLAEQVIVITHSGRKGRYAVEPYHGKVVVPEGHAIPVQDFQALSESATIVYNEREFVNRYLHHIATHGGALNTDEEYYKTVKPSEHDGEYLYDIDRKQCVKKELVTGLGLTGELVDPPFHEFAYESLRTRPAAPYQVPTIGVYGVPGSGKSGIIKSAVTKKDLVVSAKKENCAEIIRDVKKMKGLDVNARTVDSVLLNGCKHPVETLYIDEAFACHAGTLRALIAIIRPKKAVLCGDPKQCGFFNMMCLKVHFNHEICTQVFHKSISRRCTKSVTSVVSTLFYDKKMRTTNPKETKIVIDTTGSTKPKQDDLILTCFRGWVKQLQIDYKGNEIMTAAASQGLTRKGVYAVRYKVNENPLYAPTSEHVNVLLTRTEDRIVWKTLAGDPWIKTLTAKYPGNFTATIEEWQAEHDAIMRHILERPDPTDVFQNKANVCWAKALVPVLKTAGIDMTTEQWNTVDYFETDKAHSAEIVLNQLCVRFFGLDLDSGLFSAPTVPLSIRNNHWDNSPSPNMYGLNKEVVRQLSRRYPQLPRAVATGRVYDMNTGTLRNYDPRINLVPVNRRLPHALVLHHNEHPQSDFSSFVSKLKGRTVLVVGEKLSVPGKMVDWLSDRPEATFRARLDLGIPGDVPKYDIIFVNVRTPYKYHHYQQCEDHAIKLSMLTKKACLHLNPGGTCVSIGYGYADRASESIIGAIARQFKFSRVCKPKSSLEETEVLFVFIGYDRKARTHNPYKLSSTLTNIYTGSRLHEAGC

CCCNC(=O)[C@H]1O[C@@H]1C(=O)N[C@H](C(=O)N1CCC[C@H]1C(=O)OC)[C@@H](C)CC [CA074 methyl ester]
TRIM14 cleavage product (CP) in infected cell lysates (immunoblot) [1]: halted; also recorded: absent; also recorded: no longer present | VEEV titers / viral replication (plaque assays) [2]: halted viral replication; also recorded: decreased significantly

CFP-FOXG1-YFP: CFP-YFP substrate, 21-residue human FOXG1 sequence RSTTSRAKLAFKR↓GARLTSTG ({CFP}-RSTTSRAKLAFKRGARLTSTG-{YFP})
Proteases cutting the substrate: ZIKV ns2B-ns3 protease [3]: cleavage; also recorded: ZIKV ns2B-ns3 protease

CFP-NT5M-YFP: CFP-YFP substrate, 34-residue human NT5M sequence MIRLGGWCARRLCSAAVPAGRR↓GAAGGLGLAGGR ({CFP}-MIRLGGWCARRLCSAAVPAGRRGAAGGLGLAGGR-{YFP}; cysteine pairing not given here)
Proteases cutting the substrate: ZIKV ns2B-ns3 protease [3]: cleavage; also recorded: ZIKV ns2B-ns3 protease

CFP-SFRP1-YFP: CFP-YFP substrate, 25-residue human SFRP1 sequence MGIGRSEGGRR↓GAALGVLLALGAAL ({CFP}-MGIGRSEGGRRGAALGVLLALGAAL-{YFP})
Proteases cutting the substrate: ZIKV ns2B-ns3 protease [3]: cleavage; also recorded: ZIKV ns2B-ns3 protease

CFP-SFRP2-YFP: Uncleavable control CFP-YFP substrate, 34 residues MLQGPGSLLLLFLASHCCLGSARGLFLFGQPDFS ({CFP}-MLQGPGSLLLLFLASHCCLGSARGLFLFGQPDFS-{YFP}; cysteine pairing not given here)
Proteases cutting the substrate: ZIKV ns2B-ns3 protease [3]: Control, not cleaved by ZIKV

CFP-SFRP4-YFP: Uncleavable control CFP-YFP substrate, 34 residues MFLSILVALCLWLHLALGVRGAPCEAVRIPMCRH ({CFP}-MFLSILVALCLWLHLALGVRGAPCEAVRIPMCRH-{YFP}; cysteine pairing not given here)
Proteases cutting the substrate: ZIKV ns2B-ns3 protease [3]: Control, not cleaved by ZIKV

CFP-TRIM14-YFP (SEQ ID NO: 4): CFP-YFP FRET substrate, 25 residues of human TRIM14 DCFATGRHYWEVDVQEAGA↓GWWVGA (DCFATGRHYWEVDVQEAGAGWWVGA)
Extent of cleavage of TRIM14 substrate by EEEV nsP2 protease (SDS-PAGE) [4]: did not show significant amounts of cleavage | Proteases cutting the substrate: VEEV nsP2 cysteine protease [5]: VEEV nsP2 cysteine protease | Extent of cleavage of TRIM14 substrate by CHIKV nsP2 protease (SDS-PAGE) [6]: did not show evidence of significant cleavage | Extent of cleavage of TRIM14 substrate by WEEV nsP2 protease (SDS-PAGE) [7]: did not show significant amounts of cleavage | Km [8]: 21 ± 2 µM | Vmax [8]: 0.056 ± 0.002 U/mg
